The values that follow come from US8901076 (Molecular Partners, dated 2014).

The assay addresses VEGF-A165 (UniProt P15692 27-191). The assay is described as follows: cell-based or functional assay.

VEGF-A165, sequence (P15692 other isoform, or with tags, fused parts or gaps): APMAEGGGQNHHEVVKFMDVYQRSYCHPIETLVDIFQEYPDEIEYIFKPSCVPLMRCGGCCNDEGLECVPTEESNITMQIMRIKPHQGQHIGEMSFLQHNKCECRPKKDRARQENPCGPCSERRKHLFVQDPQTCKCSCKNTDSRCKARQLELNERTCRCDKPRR

B1: DARPin #30 (designed binder)
chain: GSDLGKKLLEAARAGQDDEVRILMANGADVNTADSTGWTPLHLAVPWGHLEIVEVLLKYGADVNAKDFQGWTPLHLAAAIGHQEIVEVLLKNGADVNAQDKFGKTAFDISIDNGNEDLAEILQKAA
As for B1, the “IC50 (read off the curve); sprout length of VEGF-A165 stimulated HUVEC spheroids” value is approximately 0.03 nM.
